The values that follow come from patent publication US20200325179A1 (EUROPEAN MOLECULAR BIOLOGY LABORATORY, published 2020).

In test [1] the target is T1, ADDomer with one cysteine mutation Q476C (synthetic penton base protomer based on …).
T1 construct: Virus-like particle: 12 pentamers of 5 engineered penton base protomers each; also called Cys-ADDomer; Cys modified ADDomer
T1 chain: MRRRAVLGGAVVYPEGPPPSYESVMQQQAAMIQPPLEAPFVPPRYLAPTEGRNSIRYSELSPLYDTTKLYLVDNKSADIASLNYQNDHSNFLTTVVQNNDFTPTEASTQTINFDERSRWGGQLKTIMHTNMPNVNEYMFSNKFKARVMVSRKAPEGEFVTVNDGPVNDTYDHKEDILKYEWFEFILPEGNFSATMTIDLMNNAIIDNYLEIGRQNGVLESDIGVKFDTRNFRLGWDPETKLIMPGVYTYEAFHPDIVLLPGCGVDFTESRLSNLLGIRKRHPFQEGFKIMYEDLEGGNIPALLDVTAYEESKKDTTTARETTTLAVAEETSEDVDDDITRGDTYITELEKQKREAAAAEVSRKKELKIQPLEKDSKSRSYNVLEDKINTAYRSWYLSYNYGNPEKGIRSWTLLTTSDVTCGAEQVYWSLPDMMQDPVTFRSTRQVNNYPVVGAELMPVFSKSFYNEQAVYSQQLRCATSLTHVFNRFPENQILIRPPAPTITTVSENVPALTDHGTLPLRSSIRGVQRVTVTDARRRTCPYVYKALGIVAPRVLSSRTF
Nature of the test: non-reducing SDS-PAGE and blot; biotinylated peptide detected with Alexa488 avidin, ADDomer with a specific antibody and a Cy3 secondary antibody; covalent disulfide. The method, then: (§1) FIG. 14: Covalent coupling of “STICKER” peptide to ADDomer containing targeted cystein mutations. Wild-type ADDomer (wt) and ADDomer with one cysteine mutation (K363C, Q476C or A477C, respectively) were incubated with STICKER peptides (C20 (SEQ ID NO: 77) and C9 (SEQ ID NO: 75), respectively). SDS-PAGE analysis was performed under reducing (+bMeSH) and non-reducing (−bMeSH) conditions and transferred to a PVDF membrane. ADDomer (dark grey) and STICKER peptide (light grey) were visualized by binding of labelled antibody and Avidin binding, respectively, evidencing STICKER binding to cysteine-mutant ADDomer by specific disulfide bond formation (marked by white circle in lower panel)
(§2) To widen the ADDomer potential, a system enabling the addition of extra epitopes at the ADDomer was developed. Single cysteines were inserted at specific locationd of the ADDomer sequence (either K363C or Q476C or A477C). […] Complexes were run on SDS-PAGE and ADDomer was detected by a specific antibody and a secondary antibody labelled with Cy3 while the biotinylated peptide was detected by Alexa488 labeled avidin. When the right Cys-ADDomer/peptide was used, the presence of peptide was detected at the ADDomer band size (circle in FIG. 14). […]

Test [2] addresses T2, ADDomer with one cysteine mutation A477C (synthetic penton base protomer based on …).
T2 construct: Virus-like particle: 12 pentamers of 5 engineered penton base protomers each; also called Cys-ADDomer; Cys modified ADDomer
T2 chain: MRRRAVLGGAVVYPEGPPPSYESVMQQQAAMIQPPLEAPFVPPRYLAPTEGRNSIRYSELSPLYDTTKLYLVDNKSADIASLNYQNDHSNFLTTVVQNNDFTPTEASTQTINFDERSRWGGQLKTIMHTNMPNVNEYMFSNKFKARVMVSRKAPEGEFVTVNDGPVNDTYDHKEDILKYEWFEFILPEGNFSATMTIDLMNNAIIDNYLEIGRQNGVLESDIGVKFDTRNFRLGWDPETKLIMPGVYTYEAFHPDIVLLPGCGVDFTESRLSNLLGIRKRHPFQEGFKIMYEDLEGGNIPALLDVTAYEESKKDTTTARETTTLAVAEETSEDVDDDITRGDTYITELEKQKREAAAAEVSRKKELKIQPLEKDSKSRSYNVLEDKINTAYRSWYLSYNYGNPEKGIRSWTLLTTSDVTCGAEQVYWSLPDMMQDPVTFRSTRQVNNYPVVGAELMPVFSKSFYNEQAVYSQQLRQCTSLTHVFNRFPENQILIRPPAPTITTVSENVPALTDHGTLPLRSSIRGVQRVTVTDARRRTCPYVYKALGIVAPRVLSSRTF
Described as above. As to the method:
as §1, §2

Ends that are not written are not given here.

With AKRARLSTCFNPVYPYEDES (also: biotinylated (position not given here), Detected by Alexa488 labelled avidin) [STICKER peptide C9 (fibre protein fragment, Cys at position 9)], the binding result in test [1] and in test [2] was “binds” in each case.
